Reference: patent US20180135060A1 (OURO FINO SAUDE ANIMAL LTDA, published 2018)

Molecular target: T1, Rrp4 protein of the Pyrococcus abyssi exosome, as encoded by pMRKA-EXO (Pyrococcus abyssi, UniProt Q9V120 2-263)
T1 construct: Co-expressed in E. coli; also called PAB0419
T1 sequence: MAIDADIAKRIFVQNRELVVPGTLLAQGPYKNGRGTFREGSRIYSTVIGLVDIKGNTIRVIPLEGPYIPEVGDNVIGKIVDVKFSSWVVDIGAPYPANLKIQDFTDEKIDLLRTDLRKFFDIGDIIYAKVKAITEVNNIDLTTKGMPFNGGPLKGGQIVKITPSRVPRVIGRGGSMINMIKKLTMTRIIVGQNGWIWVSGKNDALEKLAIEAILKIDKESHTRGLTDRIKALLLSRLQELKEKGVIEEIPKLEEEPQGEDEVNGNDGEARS
Assay: co-expression in E. coli and co-purification, gel (FIG. 11)

B1: Rrp41 protein of the Pyrococcus abyssi exosome, as encoded by pMRKA-EXO (R89T, K91S) (other)
chain: MATRAEKPEGLKLIDENGRRIDGRKKYELRPIKMEVGVLKNANGSAYIEWGKNKIIAAVYGPRELHPKHLQRPDRAILRVRYNMAPFSVEETKSPGPDRRSIEISKVIKGALEPALILEMFPRTAIDVFIEVLQADAGTRVAGITAASLALADAGIPMRDLVAACAAGKIEGEIVLDLNKEEDNYGEADVPVAIMPLKNDITLLQMDGYLTKDEFIEAVKLAIKGAKAVYQKQREALKEKYLKIAQEVEGS
notes: also called PAB0420
B1: binds.
